For this data set, the target named is TTP (tristetraprolin), GST-TTP (UniProt P26651 1-326). Briefly: EMSA; 10 mM Tris-HCl pH 7.5, 50 mM KCl, 1 mM DTT, 5% glycerol, 500 ug/ml tRNA, 40 ng probe in 20 ul, 20 min at 4 C (stated for lysate EMSA); 6% native PAGE on ice. Conditions: protein: commercial; (GST fusion); label: 3' biotin. (In general: In EMSA bound probe runs differently from free probe, usually more slowly.)
Chain of TTP (tristetraprolin), GST-TTP (P26651 whole entry, the tested form may be a part): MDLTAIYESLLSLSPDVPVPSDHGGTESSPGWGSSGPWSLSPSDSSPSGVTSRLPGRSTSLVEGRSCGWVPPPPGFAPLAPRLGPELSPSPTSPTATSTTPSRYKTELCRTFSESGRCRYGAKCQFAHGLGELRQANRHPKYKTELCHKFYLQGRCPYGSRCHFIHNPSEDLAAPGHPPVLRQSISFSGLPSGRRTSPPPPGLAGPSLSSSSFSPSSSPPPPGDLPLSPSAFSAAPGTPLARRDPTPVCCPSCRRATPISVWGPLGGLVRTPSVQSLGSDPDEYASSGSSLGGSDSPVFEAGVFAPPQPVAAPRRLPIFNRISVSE

B1: P6M (probe 6, AUUUA to AGGGA) (ssRNA)
RNA: GGGGUUAAAUUAUGUUCUUAACUGUAACCAGUUUUUUUUUAGGGAUCUCUUUAAUCUUUUUUUAUUAUUAAAAGCAAGUUUC
Turning to B1, the binding result is recorded as “no binding”.

B2: P5M (probe 5, AUUUA to AGGGA) (ssRNA)
RNA: GGGAGCAGUUAACCUUCAAGACAUUCCACUUGCUAAAAUUAGGGAUUUUGUAAGGAGAGGUUUUAAUUAAAACAAAAAAAAA
B2: the binding result is “no binding”.

For the origin of these results see article PMC4917896, “RNA binding proteins regulate anabolic and catabolic gene expression in chondrocytes”.
